From the supplement of paper PMC10567573

B1: ZNF511 (parent)
chain: AAPFRFVARPVRFPREHQFFEDGD

Variants of: B1
Experiment: protein stability index of a GFP-peptide fusion (GPS, HEK-293T) (PSI 1-6); higher = more stable
Conditions: c terminus: a fixed tail appended
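Further: lentivirally expressed fusions sorted by FACS into six bins by GFP to DsRed ratio, PSI derived from sequencing read proportions per bin multiplied by bin number.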

Protein stability index, by site and new letter:
A8: C 1.96 | K 2.31 | M 2.74 | V 1.59 | T 1.88 | G 2.29 | W 2.26 | D 1.3 | L 2.15
A1: F 3.42 | D 2.2 | E 2.04 | Q 2.61 | I 1.82 | S 2.07 | H 1.63 | P 2.29
D22: C 2.08 | Q 2 | A 1.94 | T 2.29 | V 2.65 | K 1.52 | I 1.64 | N 2.25 | G 2.34 | P 2.44
Q18: H 1.7 | E 1.96 | Y 1.74 | I 2.26 | A 2.77 | D 1.8 | G 1.87
F13: R 2.32 | A 2.25 | M 2.72 | L 2.49 | T 2.37 | D 2.1 | E 2.36
V7: N 3.28 | P 4.46 | S 3.76 | G 3.74 | L 3.64
V11: S 2.34 | I 2.08 | R 2 | A 1.96 | W 1.78 | N 1.95 | T 1.94 | G 1.53
D24: H 1.66 | M 1.49 | A 2.23 | Y 1.83 | Q 2.06 | T 1.72 | W 2.32 | R 2.04 | K 2.97 | L 2.04
P10: Q 2.08 | T 1.29 | G 1.87 | R 1.8 | L 1.75
E16: H 2.25 | A 3.2 | P 2.55 | W 1.79 | Q 2.18 | F 1.82 | I 2.03 | V 2.34
F6: V 3.89 | I 3.38 | W 3.41 | N 4.55 | M 4.13 | R 4.03 | Q 4.94 | P 4.83 | Y 1.69 | G 4.43 | D 4.19 | C 2.81
A2: S 3.91 | W 1.47 | V 1.53 | N 3.12 | G 2.36
P14: V 2.22 | M 2.17 | N 2.1 | Q 2.15 | F 2 | T 1.87
G23: F 1.61 | Q 2.45 | Y 2.35 | P 2.69 | K 2.53 | R 2.24 | A 2.29 | L 2.56
R5: G 3.68 | Y 2.15 | S 4.16 | N 4.22 | P 3.92 | H 3.3 | K 3.91 | F 2.18 | M 3.25
P3: A 2.37 | T 2.1 | I 1.34 | Q 2.26 | V 1.53 | R 2.65
R9: P 3.54 | T 1.83 | F 1.56 | L 1.94 | N 1.38
F19: I 1.87 | K 2.08 | M 3.14 | L 2.61 | Q 2.46
H17: G 2.29 | Y 2.11 | E 2.71 | N 2.71
R12: L 2.13 | P 2.22 | K 2.29 | Q 2.44 | E 1.97
F20: W 1.9 | K 2.46 | R 2.32 | V 2.85
E21: Q 2 | W 1.69 | S 2.24 | T 1.64 | K 2.19 | Y 1.92 | M 1.76 | L 1.92 | G 3.51
R15: F 2.08 | K 2.2 | E 2.06 | W 1.65 | G 1.74 | S 2.48 | A 1.94
F4: I 3.9 | S 4.53 | C 3.4 | M 3.34 | L 3.65
